# Results as given in the nanobody polyreactivity screen of Harvey et al. (2022).
# Test: yeast display, Sf9 membrane polyspecificity reagent, FACS + sequencing; frameworks hold sequencing errors
# Summary of the method: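 Genes from sorted yeast were amplified by colony PCR, read by MiSeq 2 × 250 sequencing and filtered on CDR length. These cells carried a synthetic nanobody library in Saccharomyces cerevisiae BJ5465 and were sorted by FACS into low and high (top ~1%) gates on anti-HA and streptavidin fluorescence. Polyreactivity is labelled according to the gate of origin.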
row,Sequence,polyreactivity (PSR sort gate)
1,QVQLVESGGGLVQAGGSLRLSCAASGRTFPFYAMGWYRQAPGKEREFVAAITASGDSTYYADSVKGRFTISRDNAKNTVYLQMNSLKPEDTAVYYCAADLPVWYVTRYDYWGQGTQVTVSS,low polyreactivity
2,QVQLVESGGGLVQAGGSLRLSCAASGRTFPGNAMGGYRQAPGKERELVAAISSRGGSTYYADSVKGRFTISRDNAKNTVNLQMKSLKPEDTAVYYCNAASNYRVRRTYHGDYWGLGTQVTVSS,high polyreactivity
3,QVQLVESGGGLVQAGGSLRLSCAASGRTFPGNAMGWYRQAPGKEREFFAAITRSGGSTYADSVKGRFTISRDNAKNTVYLQMNSLKPEDTAVSYCAATFKWYSHTKPRFDYWGQGTKVTVSS,low polyreactivity
4,QVQLVESGGGLVQAGGSLRLSCAASGRTFPGNAMGWYRQAPGKERELVAAISKSSSRTYYADSVKGRFTISRDNAKNTVYLQMNSLKPEDTAVYYCAASSFNNGHRYDYWGQGTQVTVSS,high polyreactivity
5,QVQLVESGGGLVQAGGSLRLSCAASGRTFPGNAMGWYRQAPGKERELVAAISSRGGSTYYADSVKGRFTISRDNAKNTVYLQMNSLKPEDTAVYYCARRYLPYGGYYYWGQGTQVTVSS,high polyreactivity
6,QVQLVESGGGLVQAGGSLRLSCAASGRTFPGNAMGWYRQAPGKERELVAAISWSGTRTYYADSVKGRFTISRDNAKNTVYLQINSLKPEDTAVYYCAARRYGVRSYGFDSWGQGTQVTVSS,high polyreactivity
7,QVQLVESGGGLVQAGGSLRLSCAASGRTFPGNAMGWYRQAPGKERELVATITWSSGRTHYADSVKGRFTISRDNAKNTVYLQMNSLKPEDTAVYYCAAKLIVAVGGFYYWGQGTQVTVSS,low polyreactivity
8,QVQLVESGGGLVQAGGSLRLSCAASGRTFPGNDMGWYRQAPGKERELVAAISGNGGNTNYADSVKGRFTISRDNAKNTVYLQMNSLKPEDTAVYYCKADVPSDGYPGYPGGFESWGQGTQVTVSS,low polyreactivity
9,QVQLVESGGGLVQAGGSLRLSCAASGRTFPGYAMGWYREAPGKERELVAAISSSGGSTYYADSVKGRFTISRDNAKNTVYFQMNSLKPEVTAVYSCAVPYWYGRGHCYWGQGTQVTVSS,low polyreactivity
10,QVQLVESGGGLVQAGGSLRLSCAASGRTFPGYAMGWYRQAPGKERELVAAISNSGGRTYYADSVKGRFTISRDYAKNTVYLQMNSLKPEDTAVYYCNATTDNGSNKRYYYWGQGTQVTVSS,high polyreactivity
11,QVQLVESGGGLVQAGGSLRLSCAASGRTFPGYAMGWYRQAPGKERELVAGISYRGGSTYYADSVKGRFTISRDNAKNTVYLQMYSLKPEDTAVYYCARDYSRHKGDYWGQGTQVTVSS,low polyreactivity
12,QVQLVESGGGLVQAGGSLRLSCAASGRTFPINTMGWSRQAPGKEREFVAAITLGGRTYYADSVKGRFTISRDNAKNTVYLQMNSLKPEDTAVYYCAVAQPGYWLYRHFLPGSDYWGQGTQVTVSS,high polyreactivity
13,QVQLVESGGGLVQAGGSLRLSCAASGRTFPIYAMGWYRQAPGKERELVAAITGGGSTNYADSVKGRFTISRDNAKNTVYLQMNSLKPEDTAVYYCNARWFWYRPGGSRVDYWGQGTHVTVSS,high polyreactivity
14,QVQLVESGGGLVQAGGSLRLSCAASGRTFPIYAMGWYRQAPGKERELVAAITYSGGSTYYADSVKGRFTISRDNAKNTVYLQMNSLKPEDTAVSYCAVDGTKPYWHQRYDYWGQGTLVTVSS,low polyreactivity
15,QVQLVESGGGLVQAGGSLRLSCAASGRTFPIYAMGWYRQSPGKERELVAAITYSGGSTYYADSVKGRFTISRDNANNKVYLKMNSLKPEDTSVYYCAVDGTKPYWHQRYDYWGQGTQVTVSS,low polyreactivity
16,QVQLVESGGGLVQAGGSLRLSCAASGRTFPLNAMGWYRQAPGKERELVAAITWSGGRTYYADSVKGRFTISRDNAKNTVYLQMNSLKPEDTAVYYCNVDKVTSWYYYGYWGQGTQVTVSS,low polyreactivity

row,Sequence,polyreactivity (PSR sort gate)
1,QVQLVESGGGLVQAGGSLRLSCAASGRTFPLYAMGWYIQAPGKERELVAAITRSGGSTYYADSVKGRFTISRDNAKNTVYLQMNSLKPEDTAVYYCNARKSKDRPTGYAFNYWGQGTQVTVSS,high polyreactivity
2,QVQLVESGGGLVQAGGSLRLSCAASGRTFPLYAMGWYRQAPGKERELVAAISYICGSTYYADSVKGLFTISRDNAKNTVYLQMNSLKPEDTAVYYCNADYNYAYDYWGQGTQVTVSS,low polyreactivity
3,QVQLVESGGGLVQAGGSLRLSCAASGRTFPLYAMGWYRQAPGKERELVARINRGGSTYYADSVKGRFTISRDNAKNTVYLQMNSLKPEDTAVYYCNARHTWHQTYDYWGQGTQVTVSS,low polyreactivity
4,QVQLVESGGGLVQAGGSLRLSCAASGRTFPLYAMGWYRQAPGKERELVASITSDSSTYYADSVKGRFTISRDNAKNTVYLQMNSLKPEDTAVYYCAATTIPYPYTEFDYWGQGTQVTVSS,low polyreactivity
5,QVQLVESGGGLVQAGGSLRLSCAASGRTFPNYVIGWYRQATGKERELVAAINSGGRTNYADSVKGRFTISRDNAKNTVYLQMNRLKQEDTAFYFCTKRGHPARLGYYYWGQGTQVTVSS,low polyreactivity
6,QVQLVESGGGLVQAGGSLRLSCAASGRTFPPYGMGWNRQAPGKERELVADISKSSGSTNYADSVKARFTISRDKAKNTVYLQMNSVKPEDTAVYYCNVDLYRWSKLAGAYRMDYSGQGTQVTVSS,low polyreactivity
7,QVQLVESGGGLVQAGGSLRLSCAASGRTFPRNGMGWYRQAPGKERELVAAIRYSGGSTYYADSVKGRFTISRDNAKNTVYLQMNSLKPEDTAVYYWAAGRNRAGGFGSWGQGTQVTVSS,high polyreactivity
8,QVQLVESGGGLVQAGGSLRLSCAASGRTFPRNGMGWYRQAPGKERELVAAISWSGGRTYYADSVKGRFTISRDNAKYTVYLQMNSLKPEDTAVYYCNALYFRKGGYWGHGTQVTVSS,high polyreactivity
9,QVQLVESGGGLVQAGGSLRLSCAASGRTFPRYAMGWYRQAPGKERELVAAISVRAGITYYADSVKGRFTISRDNAKNTVYLQMKSLKPEDTADYYCAKDHWTSSYDEGDYWGQGTQVTVSS,low polyreactivity
10,QVQLVESGGGLVQAGGSLRLSCAASGRTFPRYAMGWYRQAPGKERELVAAITRRGSSTYYADSVKGRFTISRDNAKNTVYLQMNSLKPEDTAVYYCATSYHGYYYRYDYWGQGTQVTVSS,high polyreactivity
11,QVQLVESGGGLVQAGGSLRLSCAASGRTFPRYTMGWYRPAPGKERELVAASATGGSTYYADSVKGRFTISRDNAKNTVYLQMNSLKPEDTAVYYCAARPYSNRYVLGVYYWGQGTQVTVSS,high polyreactivity
12,QVQLVESGGGLVQAGGSLRLSCAASGRTFPSYAMGWYRQAPGKERELVAAISSRGSRTYYADSVKGRFTISRDNAKNTVYLQMNSLKPEDTAVYYCAAKNLWTRKSRYDYWGQGTQVTVSS,high polyreactivity
13,QVQLVESGGGLVQAGGSLRLSCAASGRTFPSYTMGWYRQAPGKERELVAAITWTGGSTYYADSVKGRFTISRDNAKNTVYLQINSLKREDTAVYYCADYEYWGQGTQVTVSS,low polyreactivity
14,QVQLVESGGGLVQAGGSLRLSCAASGRTFPSYTMGWYRQAPGKERELVAAITWTGGSTYYADSVKGRFTISRDNAKNTVYLQMNSLKPEDTAVYYCADYDYWGLGTQVTVSS,low polyreactivity
15,QVQLVESGGGLVQAGGSLRLSCAASGRTFPSYTMGWYSQAPGKERELVAAITWTGGSTYYADSVKGRFTISRDNAKNTVYLQMNSLKPEDTAVYYCADYDYWGQGTQVTVSS,low polyreactivity
16,QVQLVESGGGLVQAGGSLRLSCAASGRTFPTNAMGWYRQAPGKERELVARISTRGGSTYYADSVKGRFTISRDNAKNTVYLQMNSLKPEDTAVYYCAARYQGNYRTDKYDYWGQGTQVTVSS,high polyreactivity
